Consider one substance from US20240060043A1.

The target in this assay is FMC63 protein (Example 2). In words: ELISA, 500 ng/well coated FMC63, fresh biotinylated fusion protein at 500 or 0.5 ng/well, 4° C.

In the case of “TNF-α:CD19 ECD fusion protein (ClonedTNFFP)”, the fold increase in absorbance over wells without fusion protein is > 7 fold.
